Test results published in patent US20200283521A1 (GRANULAR THERAPEUTICS, published 2020).
Substitutions are numbered along the chain they refer to. Like-named read-outs stand apart in the source and are kept apart here. Each block holds one binder with its values, some of them ahead of it.

Experiments:
hOX40-Fc [1] = biological target: T1, hOX40-Fc; test: direct ELISA on coated protein, IgG1
T1 construct: member of the panel m9
T1 chain: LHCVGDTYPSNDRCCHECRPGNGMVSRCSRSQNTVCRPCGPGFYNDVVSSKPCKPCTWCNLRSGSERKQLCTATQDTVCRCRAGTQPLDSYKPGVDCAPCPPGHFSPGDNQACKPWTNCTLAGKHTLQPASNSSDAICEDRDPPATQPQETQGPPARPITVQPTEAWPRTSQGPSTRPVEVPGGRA

hBAFFR-Fc [2] = biological target: T2, hBAFFR-Fc (human, UniProt Q96RJ3); test: direct ELISA on coated protein, IgG1
T2 construct: Fc fusion; member of the panel m9

hVCAM-Fc [3] = biological target: T3, hVCAM-Fc; test: direct ELISA on coated protein, IgG1
T3 construct: member of the panel m9
T3 chain: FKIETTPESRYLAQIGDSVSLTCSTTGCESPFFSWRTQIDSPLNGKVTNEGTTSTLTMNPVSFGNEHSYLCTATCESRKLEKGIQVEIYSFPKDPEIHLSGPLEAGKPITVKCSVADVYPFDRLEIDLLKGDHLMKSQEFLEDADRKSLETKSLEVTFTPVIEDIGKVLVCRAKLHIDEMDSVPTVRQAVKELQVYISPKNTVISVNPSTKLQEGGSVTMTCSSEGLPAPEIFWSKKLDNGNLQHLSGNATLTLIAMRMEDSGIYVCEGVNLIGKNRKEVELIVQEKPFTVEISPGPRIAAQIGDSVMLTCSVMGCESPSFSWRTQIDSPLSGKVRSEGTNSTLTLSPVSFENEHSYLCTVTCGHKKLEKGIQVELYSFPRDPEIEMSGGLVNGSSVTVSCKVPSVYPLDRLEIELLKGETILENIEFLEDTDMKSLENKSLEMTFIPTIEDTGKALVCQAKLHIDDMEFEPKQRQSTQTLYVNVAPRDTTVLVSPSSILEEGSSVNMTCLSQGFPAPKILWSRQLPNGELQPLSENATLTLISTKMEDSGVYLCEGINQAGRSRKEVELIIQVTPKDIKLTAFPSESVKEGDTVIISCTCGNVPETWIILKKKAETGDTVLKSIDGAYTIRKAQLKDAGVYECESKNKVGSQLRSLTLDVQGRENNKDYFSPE

hVCAM-1 [4] = biological target: T4, hVCAM-1 (human, UniProt P19320); test: direct ELISA on coated protein, IgG1
T4 construct: purified recombinant protein; member of the panel m9
T4 sequence (looked up): T3 chain

h4-1BB-Fc [5] = biological target: T5, h4-1BB-Fc; test: direct ELISA on coated protein, IgG1
T5 construct: member of the panel m9

hTWEAK-Fc [6] = biological target: T6, hTWEAK-Fc (human, UniProt O43508); test: direct ELISA on coated protein, IgG1
T6 construct: Fc fusion; member of the panel m9
T6 sequence (looked up): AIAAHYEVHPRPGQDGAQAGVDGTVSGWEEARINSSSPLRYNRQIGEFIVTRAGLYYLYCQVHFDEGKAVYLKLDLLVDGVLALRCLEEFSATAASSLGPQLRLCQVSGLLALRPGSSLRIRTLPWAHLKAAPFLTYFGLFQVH

hLTBR-Fc [7] = biological target: T7, hLTBR-Fc (human, UniProt P36941); test: direct ELISA on coated protein, IgG1
T7 construct: Fc fusion; member of the panel m9

hEpCAM-Fc [8] = biological target: T8, hEpCAM-Fc (human, UniProt P16422); test: direct ELISA on coated protein, IgG1
T8 construct: Fc fusion; member of the panel m9
T8 sequence (looked up): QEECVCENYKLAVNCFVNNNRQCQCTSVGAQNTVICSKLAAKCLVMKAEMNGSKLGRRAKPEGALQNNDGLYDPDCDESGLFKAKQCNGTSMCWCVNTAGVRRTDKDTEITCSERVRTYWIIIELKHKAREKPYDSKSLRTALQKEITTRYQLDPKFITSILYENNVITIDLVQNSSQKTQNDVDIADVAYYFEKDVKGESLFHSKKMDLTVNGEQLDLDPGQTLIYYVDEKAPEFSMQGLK

hDR3-Fc [9] = biological target: T9, hDR3-Fc (human, UniProt Q93038); test: direct ELISA on coated protein, IgG1
T9 construct: Fc fusion; member of the panel m9
T9 sequence (looked up): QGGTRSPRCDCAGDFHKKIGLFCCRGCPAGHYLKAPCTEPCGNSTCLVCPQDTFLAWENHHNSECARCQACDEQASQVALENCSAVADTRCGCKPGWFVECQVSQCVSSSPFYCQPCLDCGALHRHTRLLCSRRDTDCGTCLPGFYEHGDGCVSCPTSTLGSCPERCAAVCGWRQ

hDR6-Fc [10] = biological target: T10, hDR6-Fc (human, UniProt O75509); test: direct ELISA on coated protein, IgG1
T10 construct: Fc fusion; member of the panel m9
T10 sequence (looked up): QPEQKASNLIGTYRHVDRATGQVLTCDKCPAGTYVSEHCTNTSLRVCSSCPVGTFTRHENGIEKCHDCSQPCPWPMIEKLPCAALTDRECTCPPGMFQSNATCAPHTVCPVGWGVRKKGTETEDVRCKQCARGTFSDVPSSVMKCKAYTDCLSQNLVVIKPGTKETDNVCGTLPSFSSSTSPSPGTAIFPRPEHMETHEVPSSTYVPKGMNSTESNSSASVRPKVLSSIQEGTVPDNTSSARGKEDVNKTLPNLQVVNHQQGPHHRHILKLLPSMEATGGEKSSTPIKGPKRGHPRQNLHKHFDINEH

hCMET-Fc [11] = biological target: T11, hCMET-Fc (The natural ectodomain is cleaved by furin after residue 307 into disulfide-linked alpha and beta chains. It is given here as one continuous stretch.); test: direct ELISA on coated protein, IgG1
T11 construct: member of the panel m9
T11 chain: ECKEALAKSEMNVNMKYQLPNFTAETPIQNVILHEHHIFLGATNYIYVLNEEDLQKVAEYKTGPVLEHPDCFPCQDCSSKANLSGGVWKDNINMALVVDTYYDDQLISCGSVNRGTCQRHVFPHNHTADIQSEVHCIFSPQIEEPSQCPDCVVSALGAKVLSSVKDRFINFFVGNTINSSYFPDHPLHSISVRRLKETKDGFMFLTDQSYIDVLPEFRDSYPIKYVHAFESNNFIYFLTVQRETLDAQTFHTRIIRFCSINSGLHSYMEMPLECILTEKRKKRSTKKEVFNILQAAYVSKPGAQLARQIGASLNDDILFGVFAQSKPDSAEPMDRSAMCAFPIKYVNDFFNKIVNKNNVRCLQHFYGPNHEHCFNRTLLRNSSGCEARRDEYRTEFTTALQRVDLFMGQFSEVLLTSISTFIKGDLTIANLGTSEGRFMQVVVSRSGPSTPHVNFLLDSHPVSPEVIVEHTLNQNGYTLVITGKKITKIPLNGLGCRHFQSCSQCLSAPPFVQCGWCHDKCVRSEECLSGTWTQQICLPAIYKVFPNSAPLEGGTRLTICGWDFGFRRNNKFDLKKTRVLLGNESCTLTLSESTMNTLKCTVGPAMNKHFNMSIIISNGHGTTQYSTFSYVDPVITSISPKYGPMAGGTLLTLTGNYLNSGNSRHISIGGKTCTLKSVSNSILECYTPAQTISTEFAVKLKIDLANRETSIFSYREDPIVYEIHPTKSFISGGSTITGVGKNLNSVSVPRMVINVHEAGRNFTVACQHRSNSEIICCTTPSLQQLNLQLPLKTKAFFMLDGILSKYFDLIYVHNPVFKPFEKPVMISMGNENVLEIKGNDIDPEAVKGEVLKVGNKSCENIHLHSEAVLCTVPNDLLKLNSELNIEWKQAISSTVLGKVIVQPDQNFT

hICAM-1-Fc [12] = biological target: T12, hICAM-1-Fc (human, UniProt P05362); test: direct ELISA on coated protein, IgG1
T12 construct: Fc fusion; member of the panel m9

hCD4 [13] = biological target: T13, hCD4 (human, UniProt P01730); test: direct ELISA on coated protein, IgG1
T13 construct: purified recombinant protein; member of the panel m9

human C-KIT-Fc [14] = biological target: T14, human C-KIT-Fc (human, UniProt P10721 26-524); test: direct ELISA at 1 µg/ml
T14 construct: also called biotinylated human C-KIT-Fc; not shown: Fc part not described

[15] = biological target: T15, cynomolgus monkey C-KIT-Fc (cynomolgus monkey); test: direct ELISA at 1 µg/ml
T15 construct: also called cyno C-KIT-Fc

human C-KIT-Fc [16] = biological target: T14, human C-KIT-Fc; test: HTRF competition vs Tb-h37M IgG1
[17] = biological target: T15, cynomolgus monkey C-KIT-Fc; test: HTRF competition vs Tb-h37M IgG1
human C-KIT-Fc [18] = biological target: T14, human C-KIT-Fc; test: direct titration ELISA on coated C-KIT-Fc, IgG1 format
hOX40-Fc [19] = biological target: T1, hOX40-Fc; test: direct ELISA on coated protein, IgG1
hBAFFR-Fc [20] = biological target: T2, hBAFFR-Fc; test: direct ELISA on coated protein, IgG1; remark: listed apart in the source
hVCAM-Fc [21] = biological target: T3, hVCAM-Fc; test: direct ELISA on coated protein, IgG1
hVCAM-1 [22] = biological target: T4, hVCAM-1; test: direct ELISA on coated protein, IgG1; remark: listed apart in the source
h4-1BB-Fc [23] = biological target: T5, h4-1BB-Fc; test: direct ELISA on coated protein, IgG1; remark: listed apart in the source
hTWEAK-Fc [24] = biological target: T6, hTWEAK-Fc; test: direct ELISA on coated protein, IgG1; remark: listed apart in the source
hLTBR-Fc [25] = biological target: T7, hLTBR-Fc; test: direct ELISA on coated protein, IgG1; remark: listed apart in the source
hEpCAM-Fc [26] = biological target: T8, hEpCAM-Fc; test: direct ELISA on coated protein, IgG1; remark: listed apart in the source
hDR3-Fc [27] = biological target: T9, hDR3-Fc; test: direct ELISA on coated protein, IgG1; remark: listed apart in the source
hDR6-Fc [28] = biological target: T10, hDR6-Fc; test: direct ELISA on coated protein, IgG1; remark: listed apart in the source
hCMET-Fc [29] = biological target: T11, hCMET-Fc; test: direct ELISA on coated protein, IgG1
hICAM-1-Fc [30] = biological target: T12, hICAM-1-Fc; test: direct ELISA on coated protein, IgG1; remark: listed apart in the source
hCD4 [31] = biological target: T13, hCD4; test: direct ELISA on coated protein, IgG1; remark: listed apart in the source
human C-KIT-Fc [32] = biological target: T14, human C-KIT-Fc; test: direct titration ELISA on coated C-KIT-Fc, IgG1 format; remark: listed apart in the source
[33] = biological target: T16, human C-KIT, full length, on cells (human, UniProt P10721 26-976); test: flow cytometry, CHO-K1 transfectants
T16 construct: full-length cDNA stably transfected in CHO-K1; also used here for endogenous C-KIT of TF-1 cells; also called human C-KIT+ CHO-K1 cells; C-KIT on TF-1 cells

T5 sequence (chain, as listed by the source limits assumed): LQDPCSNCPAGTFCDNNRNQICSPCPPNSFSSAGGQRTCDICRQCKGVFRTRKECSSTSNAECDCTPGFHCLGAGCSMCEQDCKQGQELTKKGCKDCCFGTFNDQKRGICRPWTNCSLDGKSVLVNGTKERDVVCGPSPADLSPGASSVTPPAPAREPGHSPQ
T2 sequence (Q96RJ3 7-71 limits assumed): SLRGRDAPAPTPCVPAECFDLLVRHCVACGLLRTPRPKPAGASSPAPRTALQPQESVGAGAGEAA
T12 sequence (P05362 28-480 limits assumed): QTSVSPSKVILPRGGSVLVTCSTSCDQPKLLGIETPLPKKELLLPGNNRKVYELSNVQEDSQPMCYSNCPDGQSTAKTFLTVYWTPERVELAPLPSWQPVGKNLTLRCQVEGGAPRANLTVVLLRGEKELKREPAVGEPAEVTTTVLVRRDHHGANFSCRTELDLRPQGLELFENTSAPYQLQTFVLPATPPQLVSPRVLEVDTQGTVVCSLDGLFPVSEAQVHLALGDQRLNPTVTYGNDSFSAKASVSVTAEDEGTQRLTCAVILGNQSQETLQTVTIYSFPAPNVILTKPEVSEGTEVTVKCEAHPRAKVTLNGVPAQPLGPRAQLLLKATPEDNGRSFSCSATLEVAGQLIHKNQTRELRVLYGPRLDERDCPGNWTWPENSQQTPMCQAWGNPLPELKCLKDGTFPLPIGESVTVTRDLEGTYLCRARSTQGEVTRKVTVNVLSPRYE
T7 sequence (P36941 28-227 limits assumed): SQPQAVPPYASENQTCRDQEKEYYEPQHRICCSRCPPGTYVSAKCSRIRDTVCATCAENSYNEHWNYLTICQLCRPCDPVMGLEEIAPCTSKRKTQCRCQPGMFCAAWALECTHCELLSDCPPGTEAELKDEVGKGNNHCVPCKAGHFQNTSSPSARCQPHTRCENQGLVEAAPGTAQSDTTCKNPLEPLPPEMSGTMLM

binding result (hOX40-Fc [1]): no binding (tested: 1 µg/ml)
binding result (hBAFFR-Fc [2]): no binding (tested: 1 µg/ml)
binding result (hVCAM-Fc [3]): no binding (tested: 1 µg/ml)
binding result (hVCAM-1 [4]): no binding (tested: 1 µg/ml)
binding result (h4-1BB-Fc [5]): no binding (tested: 1 µg/ml)
binding result (hTWEAK-Fc [6]): no binding (tested: 1 µg/ml)
binding result (hLTBR-Fc [7]): no binding (tested: 1 µg/ml)
binding result (hEpCAM-Fc [8]): no binding (tested: 1 µg/ml)
binding result (hDR3-Fc [9]): no binding (tested: 1 µg/ml)
binding result (hDR6-Fc [10]): no binding (tested: 1 µg/ml)
binding result (hCMET-Fc [11]): no binding (tested: 1 µg/ml)
binding result (hICAM-1-Fc [12]): no binding (tested: 1 µg/ml)
binding result (hCD4 [13]): no binding (tested: 1 µg/ml)
OD450 nm (human C-KIT-Fc [14]): > 1.8 OD450 nm
OD450 nm [15]: > 2 OD450 nm
IC50 (human C-KIT-Fc [16]): 0.028 µg/mL
IC50 [17]: 0.051 µg/mL
B1: E-C7 (antibody, IgG1, V domains shown)
VH: QVQLVQSGAEVKKPGASVKVSCKASGYTFTDYYMNWVRQAPGQGLEWMGRIYPGSGNTYYAQKFQGRVTMTRDTSTSTVYMELSSLRSEDTAVYYCARGVYYYDYWGQGTLVTVSS
VL: DIQMTQSPSSLSASVGDRVTITCRASQGIRTNLAWFQQKPGKAPKSLIYSASSLQSGVPSRFSGSGSGTDFTLTISSLQPEDFATYYCQQYNSYPRTFGGGTKVEIK
notes: IgG1; also called C-KIT-E-C7

OD450 nm (human C-KIT-Fc [14]): > 1.8 OD450 nm
OD450 nm [15]: > 2 OD450 nm
EC50 (read off the curve) (human C-KIT-Fc [18]): ~0.1 µg/mL
binding result (hOX40-Fc [19]): no binding (tested: 1 µg/ml)
binding result (hBAFFR-Fc [20]): no binding (tested: 1 µg/ml)
binding result (hVCAM-Fc [21]): no binding (tested: 1 µg/ml)
binding result (hVCAM-1 [22]): no binding (tested: 1 µg/ml)
binding result (h4-1BB-Fc [23]): no binding (tested: 1 µg/ml)
binding result (hTWEAK-Fc [24]): no binding (tested: 1 µg/ml)
binding result (hLTBR-Fc [25]): no binding (tested: 1 µg/ml)
binding result (hEpCAM-Fc [26]): no binding (tested: 1 µg/ml)
binding result (hDR3-Fc [27]): no binding (tested: 1 µg/ml)
binding result (hDR6-Fc [28]): no binding (tested: 1 µg/ml)
binding result (hCMET-Fc [29]): no binding (tested: 1 µg/ml)
binding result (hICAM-1-Fc [30]): no binding (tested: 1 µg/ml)
binding result (hCD4 [31]): no binding (tested: 1 µg/ml)
B2: E-C2 (antibody, IgG1, V domains shown)
VH: B1 VH with Y103L
VL: B1 VL with L33V, F36L, S53Y, L54R
notes: IgG1; also called C-KIT-E-C2

binding result (human C-KIT-Fc [32]): no binding (tested: 10 µg/ml)
binding result [33]: binds
B3: MH5.33 (antibody, IgG1, V domains shown)
VH: B1 VH with D31N, G54A, Y101W
VL: B1 VL with S50A, N92A, S93N
notes: IgG1
